Measured values as given in patent publication US6465220B1, “Glycosylation using GalNac-T4 transferase” (GlycoZym ApS, priority 1998, dated 2002).

Legend:
Assay type in all cases: biochemical
[1] = molecular target: T1, GalNAc-T4 (Homo sapiens, UniProt Q8N4A0); assay: GalNAc-transferase assay with purified recombinant GalNAc-T4; conditions: for GalNAc-T4 activity with substrate (in words): purified GalNAc-T4
T1 construct: made in house; host or cells: High Five insect cells (baculovirus, pAcGP67 vector)
Method: (§1) In the examples, GalNAc-transferase assays were performed in 50 μl total reaction mixtures containing 25 mM cacodylate (pH 7.5), 10 mM MnCl2, 0.1-0.25% Triton X-100, 150-200 μM UDP-[^14C]-GalNAc (4,000 cpm/nmole) (Amersham) and 0.06-1 mM acceptor peptides. Peptides were either synthesized or obtained from Carlbiotech (Copenhagen), or Neosystems (Strasbourg), and quality was ascertained by amino acid analysis and mass spectrometry. Peptides Muc-1a, Muc-1b, and TAP24, were derived from the tandem repeat of human MUC1, Gendler et al., J. Biol. Chem. 265:15286 (1990), and Muc2, Muc5AC, and Muc7 from the tandem repeats of MUC2, MUC5AC, and MUC7, respectively. Gum et al., J. Biol. Chem. 264:6480 (1989); Porchet et al., Biochem. Soc. Trans. 23:800 (1995); Bobek et al., J. Biol. Chem. 268:20563 (1993). GalNAc4TAP24 was produced by in vitro glycosylation using GalNAc-T2 as described in Wandall et al., J. Biol. Chem. 272:23503 (1997). Products were quantified by scintillation counting after chromatography on Dowex-1, octadecyl silica cartridges (Bakerbond), or HPLC (PC3.2/3 or mRPC C2/C18 SC2.1/10 Pharmacia, Smart System). Products produced by in vitro glycosylation were in most cases also confirmed by mass spectrometry.
In this example, GalNAc-T4 was expressed in Sf9 insect cells. Expression constructs designed to contain amino acid residues 32-578 of the coding sequence of the putative GalNAc-T4 gene shown in SEQ ID NO:1 prepared by genomic PCR of two clones containing GalNAc-T4 (described in Bennett et al. (1998), supra) were cloned into a BamHI site of the expression vector pAcGP67 (Pharmingen), and the expression construct was sequenced. The constructs pAcGP67-GalNAc-T4506Vsol and pAcGP67-GalNAc-T4506 I sol, were designed to yield a putative soluble form of the GalNAc-T4 protein with an N-terminal end positioned immediately C-terminal to a potential transmembrane domain and including the entire sequence expected to contain the catalytic domain. […] Res. Comm. 211:347 (1995).
The activities presented in Table I were obtained with purified GalNAc-T4 and -T2, and are expressed as mU/mg (the concentration of enzyme protein estimated by SDS-PAGE using BSA as standard).

[2] = molecular target: T2, GalNAc-T1 (Homo sapiens, UniProt Q10472); assay: GalNAc-transferase assay with purified recombinant GalNAc-T1; conditions: acceptor substrate
T2 construct: Control constructs pAcGP67-GalNAc-T1-sol, pAcGP67-GalNAc-T2-sol, pAcGP67-GalNAc-T3-sol, and pAcGP67-O^2-sol were prepared as previously described; made in house; host or cells: insect cells (baculovirus, pAcGP67)
T2 sequence (Q10472 41-559 limits assumed): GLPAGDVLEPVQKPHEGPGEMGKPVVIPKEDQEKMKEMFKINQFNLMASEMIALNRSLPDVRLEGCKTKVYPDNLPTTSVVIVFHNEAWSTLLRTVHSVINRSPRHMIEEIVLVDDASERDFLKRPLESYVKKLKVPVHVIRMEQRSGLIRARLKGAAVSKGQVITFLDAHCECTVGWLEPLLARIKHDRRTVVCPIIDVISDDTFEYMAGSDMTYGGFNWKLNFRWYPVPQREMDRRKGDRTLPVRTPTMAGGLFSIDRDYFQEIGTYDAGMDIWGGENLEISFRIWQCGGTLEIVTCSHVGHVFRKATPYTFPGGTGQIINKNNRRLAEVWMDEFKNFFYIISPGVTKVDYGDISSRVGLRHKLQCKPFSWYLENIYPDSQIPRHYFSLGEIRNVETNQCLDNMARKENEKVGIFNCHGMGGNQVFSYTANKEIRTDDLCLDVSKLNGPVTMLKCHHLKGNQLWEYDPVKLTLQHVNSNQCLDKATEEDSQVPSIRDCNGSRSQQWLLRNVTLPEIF
Method: as §1, with “The following examples are provided to illustrate certain preferred embodiments of the invention, and should be considered as illustration and not as limitation. In” for “In”
In this example, GalNAc-T4 was expressed in Sf9 insect cells. Expression constructs designed to contain amino acid residues 32-578 of the coding sequence of the putative GalNAc-T4 gene shown in SEQ ID NO:1 prepared by genomic PCR of two clones containing GalNAc-T4 (described in Bennett et al. (1998), supra) were cloned into a BamHI site of the expression vector pAcGP67 (Pharmingen), and the expression construct was sequenced. […]

[3] = molecular target: T3, GalNAc-T2 (Homo sapiens, UniProt Q10471); assay: GalNAc-transferase assay with purified recombinant GalNAc-T2
T3 construct: Control constructs pAcGP67-GalNAc-T1-sol, pAcGP67-GalNAc-T2-sol, pAcGP67-GalNAc-T3-sol, and pAcGP67-O^2-sol were prepared as previously described; made in house; host or cells: insect cells (baculovirus, pAcGP67)
Method: as §1, with “The following examples are provided to illustrate certain preferred embodiments of the invention, and should be considered as illustration and not as limitation. In” for “In”
(§2) In this example, GalNAc-T4 was expressed in Sf9 insect cells. Expression constructs designed to contain amino acid residues 32-578 of the coding sequence of the putative GalNAc-T4 gene shown in SEQ ID NO:1 prepared by genomic PCR of two clones containing GalNAc-T4 (described in Bennett et al. (1998), supra) were cloned into a BamHI site of the expression vector pAcGP67 (Pharmingen), and the expression construct was sequenced. The constructs pAcGP67-GalNAc-T4506Vsol and pAcGP67-GalNAc-T4506 I sol, were designed to yield a putative soluble form of the GalNAc-T4 protein with an N-terminal end positioned immediately C-terminal to a potential transmembrane domain and including the entire sequence expected to contain the catalytic domain. Control constructs pAcGP67-GalNAc-T1-sol, pAcGP67-GalNAc-T2-sol, pAcGP67-GalNAc-T3-sol, and pAcGP67-O^2-sol were prepared as previously described in White et al., J. Biol. Chem 270:24156 (1995); Bennett et al., J. Biol. Chem. 271:17006 (1996); and Bennett et al., Biochem. Biophys. Res. Comm. 211:347 (1995).
Activities measured with the mucin derived substrates, Muc7, EA2, and Muc2 (see Table I for structures and SEQ ID NOs:19, 25 and 18, respectively), were only 2-7 fold over background values. Very low activities with a few other substrates were also observed, but for many of the “mucin-like” substrates a relative high background with Sf9 cells infected with irrelevant constructs made assessment difficult. GalNAc-T4 was expressed in High Five cells and purified to near homogeneity, however, very low endogenous activity was detected with some substrates in the same fractions when medium from cells infected with irrelevant expression constructs were used in the same purification strategy. The activities presented in Table I were obtained with purified GalNAc-T4 and -T2, and are expressed as mU/mg (the concentration of enzyme protein estimated by SDS-PAGE using BSA as standard). The highest activities with GalNAc-T4 were found from assays of Sf9 medium with the mucin peptides Muc7, EA2, and Muc2, however, the efficiencies with these substrates were considerably lower than GalNAc-T2.

[4] = molecular target: T4, GalNAc-T3 (Homo sapiens, UniProt Q14435); assay: GalNAc-transferase assay with purified recombinant GalNAc-T3; conditions: acceptor substrate
T4 construct: Control constructs pAcGP67-GalNAc-T1-sol, pAcGP67-GalNAc-T2-sol, pAcGP67-GalNAc-T3-sol, and pAcGP67-O^2-sol were prepared as previously described; made in house; host or cells: insect cells (baculovirus, pAcGP67)
T4 sequence (Q14435 38-633 limits assumed): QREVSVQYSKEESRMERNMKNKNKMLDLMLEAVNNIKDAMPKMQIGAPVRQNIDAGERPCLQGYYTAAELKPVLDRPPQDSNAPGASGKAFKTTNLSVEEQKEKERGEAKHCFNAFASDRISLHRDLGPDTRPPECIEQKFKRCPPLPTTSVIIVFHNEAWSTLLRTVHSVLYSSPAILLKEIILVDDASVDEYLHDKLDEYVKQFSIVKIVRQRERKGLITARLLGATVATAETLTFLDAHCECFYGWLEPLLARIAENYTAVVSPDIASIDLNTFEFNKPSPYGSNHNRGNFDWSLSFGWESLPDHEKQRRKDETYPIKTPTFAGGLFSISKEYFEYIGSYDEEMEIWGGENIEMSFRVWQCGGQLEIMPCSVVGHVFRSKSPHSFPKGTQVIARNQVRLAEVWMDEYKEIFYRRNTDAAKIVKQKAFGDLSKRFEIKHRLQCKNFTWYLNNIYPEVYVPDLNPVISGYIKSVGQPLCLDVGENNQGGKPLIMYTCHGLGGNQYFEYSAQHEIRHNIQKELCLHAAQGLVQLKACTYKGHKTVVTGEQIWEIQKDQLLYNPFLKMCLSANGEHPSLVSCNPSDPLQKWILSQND
Method: as §1, with “The following examples are provided to illustrate certain preferred embodiments of the invention, and should be considered as illustration and not as limitation. In” for “In”
as §2

GalNAc-T4 activity with acceptor peptide ([1]; 0.06 mM peptide in 50-μl assay) [milliunits/mg] | GalNAc-T4 activity with acceptor peptide ([1]; 0.25 mM peptide in 50-μl assay) [milliunits/mg] | GalNAc-T2 activity with acceptor peptide ([3]; 0.06 mM peptide in 50-μl assay) [milliunits/mg] | GalNAc-T2 activity with acceptor peptide ([3]; 0.25 mM peptide in 50-μl assay) [milliunits/mg] | GalNAc-T4 activity with substrate (in words) [1] | Sequence | further results
– | – | 22 ± 0.5 | 74 ± 2 | – | PRFQDSSSSKAPPPSLPSPSRLPG [hCG-β] | –
9 ± 0.5 | 29 ± 0.8 | 169 ± 2 | 128 ± 5 | – | PTTTPISTTTMVTPTPTPTC [Muc2, peptide from the tandem repeats of MUC2] | –
– | – | 0.0 | 0.0 | not | QATEYEYLDYDFLPEC [PSGL-1a] | –

The remaining lines, values behind:

Sequence | GalNAc-T4 activity with acceptor peptide ([1]; 0.06 mM peptide in 50-μl assay) [milliunits/mg] | GalNAc-T4 activity with acceptor peptide ([1]; 0.25 mM peptide in 50-μl assay) [milliunits/mg] | GalNAc-T2 activity with acceptor peptide ([3]; 0.06 mM peptide in 50-μl assay) [milliunits/mg] | GalNAc-T2 activity with acceptor peptide ([3]; 0.25 mM peptide in 50-μl assay) [milliunits/mg] | GalNAc-T4 activity with substrate (in words) [1] | further results
DSTTPAPTTK [EA2, mucin derived substrate] | 15 ± 0.1 | 42 ± 4 | 152 ± 3 | 376 ± 5 | – | Vmax GalNAc-T4 ([1]; acceptor substrate): 0.44 nmol/min/µg; Km ([1]; acceptor substrate, read-out: Km GalNAc-T4): 2.19 mM; Km [2]: 70 µM; Vmax GalNAc-T1 [2]: 0.99 nmol/min/µg; Km ([3]; acceptor substrate): 850 µM; Vmax GalNAc-T2 ([3]; acceptor substrate): 1.80 nmol/min/µg; Km [4]: 460 µM; Vmax GalNAc-T3 [4]: 0.96 nmol/min/µg
RPAPGSTAPPA [Muc1b′, peptide derived from the tandem repeat of human MUC1] | – | 0.7 ± 0.5 | – | 198 ± 9 | somewhat poor activities | GalNAc-T4 activity with acceptor peptide ([1]; 1 mM peptide in 50-μl assay): 0.9 ± 0.8 milliunits/mg; GalNAc-T2 activity with acceptor peptide ([3]; 1 mM peptide in 50-μl assay): 582 ± 9 milliunits/mg
